The target of data set [1] is T1, INSM1 ZF1;TEAD1-TEAD (human;human?, UniProt Q01101;P28347 257-292;28-104, |). As to the kind of experiment: EMSA.
In a further data set the target is TEAD1-TEAD (UniProt P28347 28-104). As to the kind of experiment: EMSA. Background: A gel shift assay detects complexes by their altered migration in electrophoresis.
Another data set addresses TEAD1-TEAD L79A (UniProt P28347 28-104, L79A). As to the kind of experiment: EMSA.
The target of the next data set is TEAD1-TEAD R75A (UniProt P28347 28-104, R75A). As to the kind of experiment: EMSA.
Sequence of TEAD1-TEAD R75A (P28347 28-104 R75A): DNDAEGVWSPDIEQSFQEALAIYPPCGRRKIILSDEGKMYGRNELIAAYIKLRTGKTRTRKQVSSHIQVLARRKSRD
In another data set the target is TEAD1-TEAD R80A (UniProt P28347 28-104, R80A). As to the kind of experiment: EMSA.
Sequence of TEAD1-TEAD R80A (P28347 28-104 R80A): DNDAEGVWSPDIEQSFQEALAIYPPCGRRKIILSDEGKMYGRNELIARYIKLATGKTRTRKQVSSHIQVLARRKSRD
Data set [2] concerns the target T2, INSM1 ZF1-ZF5 (human, UniProt Q01101 257-497). As to the kind of experiment: EMSA.
The target in data set [3] is T2, INSM1 ZF1-ZF5. As to the kind of experiment: NMR titration.
A further data set deals with INSM1 ZF3 (human, UniProt Q01101 346-396). As to the kind of experiment: NMR titration.
Sequence of INSM1 ZF3 (Q01101 346-396): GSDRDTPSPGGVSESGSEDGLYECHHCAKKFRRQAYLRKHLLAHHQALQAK
Data set [4] has as its target T2, INSM1 ZF1-ZF5. As to the kind of experiment: EMSA. This is another data set of the same source.
For a further data set, the target named is T3, CTCF ZF3-ZF7 (human, UniProt P49711 317-467).
T3 sequence: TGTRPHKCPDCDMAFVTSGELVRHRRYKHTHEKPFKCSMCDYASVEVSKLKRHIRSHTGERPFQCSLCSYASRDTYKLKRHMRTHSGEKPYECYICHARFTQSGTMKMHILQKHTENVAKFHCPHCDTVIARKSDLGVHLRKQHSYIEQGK
As to the kind of experiment: EMSA.

Data set [5] has as its target T1, INSM1 ZF1;TEAD1-TEAD. As to the kind of experiment: AUC.

Like-named read-outs stand apart in the source and are kept apart here.

T2 sequence (Q01101 257-497): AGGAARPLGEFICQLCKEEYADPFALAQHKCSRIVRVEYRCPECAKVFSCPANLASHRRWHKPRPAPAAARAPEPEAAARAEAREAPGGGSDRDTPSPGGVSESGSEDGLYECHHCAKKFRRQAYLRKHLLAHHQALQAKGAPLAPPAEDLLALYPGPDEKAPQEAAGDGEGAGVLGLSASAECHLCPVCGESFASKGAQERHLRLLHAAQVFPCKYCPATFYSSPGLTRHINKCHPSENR
T1 sequence (Q01101 257-292, chain 1 of 2): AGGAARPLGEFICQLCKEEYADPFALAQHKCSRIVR
T1 sequence (P28347 28-104, chain 2 of 2): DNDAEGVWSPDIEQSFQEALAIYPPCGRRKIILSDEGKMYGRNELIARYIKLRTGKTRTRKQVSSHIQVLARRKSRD
Sequence of TEAD1-TEAD L79A (P28347 28-104 L79A): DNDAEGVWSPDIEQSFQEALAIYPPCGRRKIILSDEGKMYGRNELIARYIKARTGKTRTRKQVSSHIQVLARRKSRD
Sequence of TEAD1-TEAD (P28347 28-104): as the sequence (P28347 28-104, chain 2 of 2) above

B1: MCAT (FAM) (dsDNA)
DNA 1: AGTGGAATGTGC
DNA 2: GCACATTCCACT
What is called Kd is the equilibrium constant for the complex coming apart. Regarding B1, the binding result with INSM1 ZF1;TEAD1-TEAD [1], with TEAD1-TEAD L79A, with TEAD1-TEAD R75A and in the data set with TEAD1-TEAD R80A was “binds” each time. For the same molecule, the equilibrium dissociation constant (Kd) with TEAD1-TEAD was around 0.09 µM; with INSM1 ZF1-ZF5 [2], 8.24 µM.

B2: M2 (unlabeled) (dsDNA)
DNA 1: TACCACCAGGGGGCAGT
DNA 2: ACTGCCCCCTGGTGGTA
Take B2: the binding result with INSM1 ZF1-ZF5 [3] and with INSM1 ZF3 was “binds” in each case.

B3: M1 (dsDNA)
DNA 1: TGTCAGGGGGCA
DNA 2: TGCCCCCTGACA
B3 yielded a Kd with INSM1 ZF1-ZF5 [4] of 6 µM.

B4: M2 (FAM) (dsDNA)
DNA 1: TACCACCAGGGGGCAGT
DNA 2: ACTGCCCCCTGGTGGTA
The molecule B4 showed a Kd with CTCF ZF3-ZF7 of 0.0984 µM.

B5: MCAT (unlabeled) (dsDNA)
DNA 1: AGTGGAATGTGC
DNA 2: GCACATTCCACT
With B5, in the data set with INSM1 ZF1;TEAD1-TEAD [5], the binding result is “binds”.

For the origin of these results see PMC11880201.
